# Laboratory results: patent US20030195337A1 (IMMUNEX, published 2003)
# B1: ULBP3, full length, expressed on transfected CV-1 cells (ligand)
# chain: DAHSLWYNFTIIHLPRHGQQWCEVQSQVDQKNFLSYDCGSDKVLSMGHLEEQLYATDAWGKQLEMLREVGQRLRLELADTELEDFTPSGPLTLQVRMSCECEADGYIRGSWQFSFDGRKFLLFDSNNRKWTVVHAGARRMKEKWEKDSGLTTFFKMVSMRDCKSWLRDFLMHRKKRLEPTAPPTMAPG
# notes: Full length cDNA in pDC409, expressed on CV-1 cells
# What was measured:
# [1] = target: ULBP4, full length, expressed on transfected CV-1 cells (human) (UniProt Q8TD07); assay: flow cytometry; Fc fusion protein on CV-1 cells transfected with full length ULBP; +++ = more than two logs above background
# [2] = target: ULBP3, full length, expressed on transfected CV-1 cells (human) (UniProt Q9BZM4); assay: as above
# [3] = target: ULBP1, full length, expressed on transfected CV-1 cells (human) (UniProt Q9BZM6); assay: as above
# [4] = target: ULBP2, full length, expressed on transfected CV-1 cells (human) (UniProt Q9BZM5); assay: as above
# Chain of ULBP2, full length, expressed on transfected CV-1 cells (human) (Q9BZM5 26-217 limits assumed): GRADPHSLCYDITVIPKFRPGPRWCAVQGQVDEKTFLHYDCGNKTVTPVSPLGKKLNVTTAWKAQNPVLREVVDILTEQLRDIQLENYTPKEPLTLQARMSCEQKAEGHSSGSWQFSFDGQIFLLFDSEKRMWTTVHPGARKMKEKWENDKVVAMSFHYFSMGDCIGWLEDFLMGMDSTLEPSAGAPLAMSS
# [5] = target: human NK cells (primary, stimulated overnight with recombinant human IL-15) (human); assay: flow cytometry; 1 ug protein on about one million IL-15 stimulated human NK cells, labeled anti-human IgG Fc; no protein control = 6
# [6] = target: B1; assay: flow cytometry; Fc fusion protein on CV-1 cells transfected with full length ULBP, PE anti-human IgG Fc
# UL16-Fc fusion protein = target: T1, UL16-Fc fusion protein (human cytomegalovirus (HCMV); human, UniProt P16757 27-184; P01857 99-330 = IgG part); assay: as above
# T1 construct: extracellular domain;domain: modified human IgG1 Fc region; Soluble fusion protein prepared as in Cosman et al. 2001
# T1 sequence (P16757 27-184, tags or fused parts left off): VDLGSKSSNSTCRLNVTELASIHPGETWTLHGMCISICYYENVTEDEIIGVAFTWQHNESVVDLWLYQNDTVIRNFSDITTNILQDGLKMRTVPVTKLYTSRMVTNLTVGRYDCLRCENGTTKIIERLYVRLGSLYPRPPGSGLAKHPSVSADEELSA
molecule,measurement,setting,value
human NKG2D-Fc fusion protein (from UniProt P26718 73-216; P01857 99-330),fluorescence above background (flow cytometry) (logabovebackground),[1],> 2
same,fluorescence above background (flow cytometry) (logabovebackground),[2],> 2
same,fluorescence above background (flow cytometry) (logabovebackground),[3],> 2
same,fluorescence above background (flow cytometry) (logabovebackground),[4],> 2
ULBP1:Fc fusion protein (from UniProt Q9BZM6 26-216),Mean fluorescence intensity,[5],35
"murine NKG2D-Fc fusion protein (Fc fusion, UniProt O54709 90-232, looked up, extracellular domain; Soluble protein made in CV-1 cells; not shown: hinge and Fc region of a modified human IgG1 (Fc mutein of Baum et al. 1994)) FKETFQPVLCNKEVPVSSREGYCGPCPNNWICHRNNCYQFFNEEKTWNQSQASCLSQNSSLLKIYSKEEQDFLKLVKSYHWMGLVQIPANGSWQWEDGSSLSYNQLTLVEIPKGSCAVYGSSFKAYTEDCANLNTYICMKRAV",binding result,[6],no binding
B1,binding result,UL16-Fc fusion protein,no binding
"ULBP4, full length, expressed on transfected CV-1 cells (ligand, Full length cDNA in pDC409, expressed on CV-1 cells; The terminus was not determined for the cell-surface form itself) HSLCFNFTIKSLSRPGQPWCEAQVFLNKNLFLQYNSDNNMVKPLGLLGKKVYATSTWGELTQTLGEVGRDLRMLLCDIKPQIKTSDPSTLQVEMFCQREAERCTGASWQFATNGEKSLLFDAMNMTWTVINHEASKIKETWKKDRGLEKYFRKLSKGDCDHWLREFLGHWEAMPEPTVSPVNASDIHWSSSSLPDRWIILGAFILLVLMGIVLICVWWQNGEWQAGLWPLRTS",binding result,UL16-Fc fusion protein,no binding
